In publication PMC8294587, “Intrinsic differences in the mechanisms of Tie2 binding to angiopoietins exploited by directed evolution to create an Ang2-selective ligand trap” (The Journal of Biological Chemistry, 2021):

T1: Angiopoietin-2 (UniProt O15123 19-496)
T1 construct: recombinant Ang2; the residue numbers printed for Ang2 (Asp448, Phe469, Ser480) come from the cited structure 2GY7; also called Ang2; source: recombinant
T1 sequence (looked up): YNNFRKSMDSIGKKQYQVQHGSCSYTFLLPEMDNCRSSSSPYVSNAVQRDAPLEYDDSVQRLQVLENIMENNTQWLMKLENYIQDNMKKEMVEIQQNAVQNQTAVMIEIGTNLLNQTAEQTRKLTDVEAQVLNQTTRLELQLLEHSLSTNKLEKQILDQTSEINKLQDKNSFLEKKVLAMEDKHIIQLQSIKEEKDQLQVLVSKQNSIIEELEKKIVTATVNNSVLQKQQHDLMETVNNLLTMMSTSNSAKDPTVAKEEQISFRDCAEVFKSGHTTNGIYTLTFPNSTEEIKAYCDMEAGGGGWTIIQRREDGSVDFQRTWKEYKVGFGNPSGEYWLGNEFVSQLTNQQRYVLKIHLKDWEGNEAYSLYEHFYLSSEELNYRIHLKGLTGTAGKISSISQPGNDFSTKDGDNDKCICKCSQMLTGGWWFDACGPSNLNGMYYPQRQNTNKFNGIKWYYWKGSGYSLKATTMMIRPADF

T2: Angiopoietin-1 (UniProt Q15389 16-498)
T2 construct: recombinant Ang1; the residue numbers printed for Ang1 (Gln415, Asp450, Leu471, Tyr478) come from the cited structure 4K0V; also called Ang1; source: recombinant
T2 sequence (looked up): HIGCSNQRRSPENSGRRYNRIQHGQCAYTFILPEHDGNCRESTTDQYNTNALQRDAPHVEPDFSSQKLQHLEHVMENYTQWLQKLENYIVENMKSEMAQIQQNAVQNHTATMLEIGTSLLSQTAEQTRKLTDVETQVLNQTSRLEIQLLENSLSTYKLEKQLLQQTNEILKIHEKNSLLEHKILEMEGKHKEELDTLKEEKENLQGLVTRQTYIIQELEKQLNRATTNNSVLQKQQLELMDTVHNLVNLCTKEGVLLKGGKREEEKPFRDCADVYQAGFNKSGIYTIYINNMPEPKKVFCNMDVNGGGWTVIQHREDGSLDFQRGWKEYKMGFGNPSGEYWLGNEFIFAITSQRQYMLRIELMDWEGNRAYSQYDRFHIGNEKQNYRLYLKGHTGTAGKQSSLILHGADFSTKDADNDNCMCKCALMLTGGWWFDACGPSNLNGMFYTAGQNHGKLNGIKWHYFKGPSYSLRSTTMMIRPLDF


Tests used:
Angiopoietin-2 = target: T1, Angiopoietin-2; assay: ELISA; recombinant Ang1 or Ang2 immobilised on Maxisorp plates, blocked with TBS, 0.1% Triton-X100, 5% milk powder; Tie2 ectodomain proteins bound for 1 h; detected with anti-Tie2 ectodomain antibodies; EC50 = concentration of ectodomain for 50% of maximal binding; conditions: both partners purified
Angiopoietin-1 = target: T2, Angiopoietin-1; assay: as above; conditions: both partners purified

Row | Binder | binding result (Angiopoietin-2) | binding result (Angiopoietin-1) | EC50 (Angiopoietin-2) [nM]
1 | Tie2 ectodomain-Fc Arg167Ala/His168Ala (Fc fusion, human, UniProt Q02763 23-442, looked up, signal peptide in the construct; Tie2 ectodomain, human, residues 1-442; also called Arg167Ala/His168Ala Tie2 ectodomain mutant; double substitution; source: Hek293, transfected, purified from culture medium (nickel chromatography); not shown: Fc (fragment of human Fc immunoglobulin domain, after a GS4 linker), C-terminal, kept) AMDLILINSLPLVSDAETSLTCIASGWRPHEPITIGRDFEALMNQHQDPLEVTQDVTREWAKKVVWKREKASKINGAYFCEGRVRGEAIRIRTMKMRQQASFLPATLTMTVDKGDNVNISFKKVLIKEEDAVIYKNGSFIHSVPAAEVPDILEVHLPHAQPQDAGVYSARYIGGNLFTSAFTRLIVRRCEAQKWGPECNHLCTACMNNGVCHEDTGECICPPGFMGRTCEKACELHTFGRTCKERCSGQEGCKSYVFCLPDPYGCSCATGWKGLQCNEACHPGFYGPDCKLRCSCNNGEMCDRFQGCLCSPGWQGLQCEREGIQRMTPKIVDLPDHIEVNSGKFNPICKASGWPLPTNEEMTLVKPDGTVLHPKDFNHTDHFSVAIFTIHRILPPDSGVWVCSVNTVAGMVEKPFNISVK | binds | binds | 
2 | monomeric wild-type Tie2 ectodomain (domain or fragment, human, UniProt Q02763 23-748, looked up, wild-type Tie2 ectodomain, monomeric form; also called Wt monomer; monomeric Tie2) AMDLILINSLPLVSDAETSLTCIASGWRPHEPITIGRDFEALMNQHQDPLEVTQDVTREWAKKVVWKREKASKINGAYFCEGRVRGEAIRIRTMKMRQQASFLPATLTMTVDKGDNVNISFKKVLIKEEDAVIYKNGSFIHSVPRHEVPDILEVHLPHAQPQDAGVYSARYIGGNLFTSAFTRLIVRRCEAQKWGPECNHLCTACMNNGVCHEDTGECICPPGFMGRTCEKACELHTFGRTCKERCSGQEGCKSYVFCLPDPYGCSCATGWKGLQCNEACHPGFYGPDCKLRCSCNNGEMCDRFQGCLCSPGWQGLQCEREGIQRMTPKIVDLPDHIEVNSGKFNPICKASGWPLPTNEEMTLVKPDGTVLHPKDFNHTDHFSVAIFTIHRILPPDSGVWVCSVNTVAGMVEKPFNISVKVLPKPLNAPNVIDTGHNFAVINISSEPYFGDGPIKSKKLLYKPVNHYEAWQHIQVTNEIVTLNYLEPRTEYELCVQLVRRGEGGEGHPGPVRRFTTASIGLPPPRGLNLLPKSQTTLNLTWQPIFPSSEDDFYVEVERRSVQKSDQQNIKVPGNLTSVLLNNLHPREQYVVRARVNTKAQGEWSEDLTAWTLSDILPPQPENIKISNITHSSAVISWTILDGYSISSITIRYKVQGKNEDQHVDVKIKNATITQYQLKGLEPETAYQVDIFAENNIGSSNPAFSHELVTLPESQAPADLGGGKMLL |  |  | 22.7
3 | R5 Tie2 ectodomain-Fc with Ser171 reverted back to Pro (Fc fusion, human, UniProt Q02763 23-442, looked up, signal peptide in the construct; Tie2 ectodomain, human, residues 1-442; also called evolved ectodomain in which Ser171 was reverted back to Pro; source: Hek293, transfected, purified from culture medium (nickel chromatography); not shown: Fc (fragment of human Fc immunoglobulin domain, after a GS4 linker), C-terminal, kept) AMDLILINSLPLVSDAETSLTCIASGWRPHEPITIGRDFEALMNQHQDPLEVTQDVTREWAKKVVWKREKASKINGAYFCEGRVRGEAIRIRTMKMRQQASFLPATLTMTVDKGDNVNISFKKVLIKEEDAVIYKNGSIIHLVPEVPDILEVHLPHAQPQDAGVYSARYIGGNLFTSAFTRLIVRRCEAQKWGPECNHLCTACMNNGVCHEDTGECICPPGFMGRTCEKACELHTFGRTCKERCSGQEGCKSYVFCLPDPYGCSCATGWKGLQCNEACHPGFYGPDCKLRCSCNNGEMCDRFQGCLCSPGWQGLQCEREGIQRMTPKIVDLPDHIEVNSGKFNPICKASGWPLPTNEEMTLVKPDGTVLHPKDFNHTDHFSVAIFTIHRILPPDSGVWVCSVNTVAGMVEKPFNISVK | binds |  | 
